Measurements taken from paper PMC7734321.

How the values were obtained:
Assay in all cases: MST
Conditions in all cases: N6 of strand 1 = tetrahydrofuran (F, abasic site analog), opposite G; MST: 50 mM Tris-HCl pH 7.5, 50 mM KCl, 1 mM EDTA, 1 mM DTT, 7% glycerol, 25 C, 10 min, 0.5 uM DNA; authors call Kd values estimates only
[1] = molecular target: OGG1 (8-oxoguanine-DNA glycosylase) (Homo sapiens) (UniProt O15527)
[2] = molecular target: T1, Nei (endonuclease VIII) (Escherichia coli) (UniProt P50465)
T1 sequence: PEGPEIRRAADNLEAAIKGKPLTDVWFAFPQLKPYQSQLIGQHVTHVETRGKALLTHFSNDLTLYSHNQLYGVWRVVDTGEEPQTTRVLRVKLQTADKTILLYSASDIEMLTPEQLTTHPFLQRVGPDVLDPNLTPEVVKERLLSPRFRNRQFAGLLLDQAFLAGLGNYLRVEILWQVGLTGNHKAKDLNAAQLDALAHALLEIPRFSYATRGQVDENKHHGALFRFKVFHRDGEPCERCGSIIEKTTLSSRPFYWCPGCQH

[3] = molecular target: NEIL1 (endonuclease VIII-like 1) (Homo sapiens) (UniProt Q96FI4)
NEIL1 (endonuclease VIII-like 1) (Homo sapiens), sequence (Q96FI4 2-390): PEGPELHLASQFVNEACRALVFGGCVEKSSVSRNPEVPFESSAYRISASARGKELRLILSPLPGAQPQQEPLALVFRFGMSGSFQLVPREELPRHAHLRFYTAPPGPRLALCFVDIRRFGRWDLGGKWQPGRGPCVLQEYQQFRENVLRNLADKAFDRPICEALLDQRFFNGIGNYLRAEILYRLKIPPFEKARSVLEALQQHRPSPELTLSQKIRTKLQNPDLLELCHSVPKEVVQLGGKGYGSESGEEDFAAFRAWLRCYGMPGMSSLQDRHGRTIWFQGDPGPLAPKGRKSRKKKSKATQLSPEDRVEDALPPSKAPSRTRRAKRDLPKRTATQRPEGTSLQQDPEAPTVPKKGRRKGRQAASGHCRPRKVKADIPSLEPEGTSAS

[4] = molecular target: T2, NTH1 (endonuclease III) (Homo sapiens) (UniProt P78549)
T2 sequence: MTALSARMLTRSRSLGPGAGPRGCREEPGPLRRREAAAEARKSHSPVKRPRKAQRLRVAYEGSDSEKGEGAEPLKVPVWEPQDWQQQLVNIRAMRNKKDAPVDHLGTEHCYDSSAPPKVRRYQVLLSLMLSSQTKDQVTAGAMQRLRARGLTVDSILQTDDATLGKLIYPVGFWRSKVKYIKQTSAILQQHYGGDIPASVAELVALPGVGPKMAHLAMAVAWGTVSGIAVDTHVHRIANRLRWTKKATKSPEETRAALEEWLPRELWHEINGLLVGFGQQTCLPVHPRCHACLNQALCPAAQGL

[5] = molecular target: T3, Fpg (formamidopyrimidine-DNA glycosylase) (Escherichia coli) (UniProt P05523)
T3 sequence: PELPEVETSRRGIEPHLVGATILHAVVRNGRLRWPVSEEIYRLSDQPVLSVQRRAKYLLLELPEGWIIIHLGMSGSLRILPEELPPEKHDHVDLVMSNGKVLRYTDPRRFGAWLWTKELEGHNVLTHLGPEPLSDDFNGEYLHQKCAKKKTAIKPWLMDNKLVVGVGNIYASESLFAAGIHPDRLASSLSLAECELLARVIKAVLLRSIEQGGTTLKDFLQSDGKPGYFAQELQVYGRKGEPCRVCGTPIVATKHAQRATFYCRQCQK

OGG1 (8-oxoguanine-DNA glycosylase) (Homo sapiens), sequence (O15527 whole entry): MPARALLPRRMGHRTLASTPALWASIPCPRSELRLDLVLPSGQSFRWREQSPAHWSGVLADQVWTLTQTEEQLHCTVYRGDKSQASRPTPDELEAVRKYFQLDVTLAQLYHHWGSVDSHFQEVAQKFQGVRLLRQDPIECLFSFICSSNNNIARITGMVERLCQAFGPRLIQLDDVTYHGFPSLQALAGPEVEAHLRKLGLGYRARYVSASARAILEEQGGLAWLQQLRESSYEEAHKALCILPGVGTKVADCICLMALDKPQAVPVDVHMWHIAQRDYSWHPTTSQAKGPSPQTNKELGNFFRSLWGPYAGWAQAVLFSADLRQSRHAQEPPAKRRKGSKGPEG

Sequence: GCTCANGTACAGAGCTG / CAGCTCTGTACGTGAGC [F/G]
- Kd [1]: 2800 nM
- Kd [2]: 500 nM
- Kd [3]: 4.4 µM
- Kd [4]: 300 nM
- Kd [5]: 1900 nM
